According to patent US20230015590A1 (JIANGSU ALPHAMAB BIOPHARMACEUTICALS, published 2023):

Target: T1, human PD-L1 (WT) (human, UniProt Q9NZQ7 19-127, limits assumed)
T1 construct: also called human PD-L1 N-terminal IgV domain
Assay: affinity measurement, method not stated

T1 sequence (Q9NZQ7 19-127 limits assumed): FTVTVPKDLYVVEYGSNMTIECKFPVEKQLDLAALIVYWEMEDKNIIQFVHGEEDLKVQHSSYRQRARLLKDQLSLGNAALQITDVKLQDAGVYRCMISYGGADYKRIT

B1: PD-L1 ISVD-9 (VHH)
VHH: QVQLVESGGGLVQPGGSLRLSCAASGKMSSRRCMAWFRQAPGKERERVAKLLTTSGSTYLADSVKGRFTISRDNSKNTVYLQMNSLRAEDTAVYYCAADSFEDPTCTLVTSSGAFQYWGQGTLVTVSS
notes: also called ISVD specific for PD-L1; aPDL1.9
A Kd of 5.92 nM was found for B1 in this work.
